Data: patent US9725708B2, “Methods of modulating ubiquitin ligase activity” (Board of Supervisors of Louisiana State University and …, priority 2012, dated 2017)
Numbering of substitutions follows the chain as printed. Where two headings read alike, the source gives them in different places.

Legend:
E6APY533A = target: T1, E6APY533A (Homo sapiens, UniProt Q05086, Y556A); experiment: E6 rescue of 125I-polyubiquitin chain formation by E6APY533A; format: biochemical; conditions: 20 nM E6 protein
T1 construct: made in house; host or cells: E. coli
T1 sequence (Q05086 1-872 isoform Q05086-3 Y553A): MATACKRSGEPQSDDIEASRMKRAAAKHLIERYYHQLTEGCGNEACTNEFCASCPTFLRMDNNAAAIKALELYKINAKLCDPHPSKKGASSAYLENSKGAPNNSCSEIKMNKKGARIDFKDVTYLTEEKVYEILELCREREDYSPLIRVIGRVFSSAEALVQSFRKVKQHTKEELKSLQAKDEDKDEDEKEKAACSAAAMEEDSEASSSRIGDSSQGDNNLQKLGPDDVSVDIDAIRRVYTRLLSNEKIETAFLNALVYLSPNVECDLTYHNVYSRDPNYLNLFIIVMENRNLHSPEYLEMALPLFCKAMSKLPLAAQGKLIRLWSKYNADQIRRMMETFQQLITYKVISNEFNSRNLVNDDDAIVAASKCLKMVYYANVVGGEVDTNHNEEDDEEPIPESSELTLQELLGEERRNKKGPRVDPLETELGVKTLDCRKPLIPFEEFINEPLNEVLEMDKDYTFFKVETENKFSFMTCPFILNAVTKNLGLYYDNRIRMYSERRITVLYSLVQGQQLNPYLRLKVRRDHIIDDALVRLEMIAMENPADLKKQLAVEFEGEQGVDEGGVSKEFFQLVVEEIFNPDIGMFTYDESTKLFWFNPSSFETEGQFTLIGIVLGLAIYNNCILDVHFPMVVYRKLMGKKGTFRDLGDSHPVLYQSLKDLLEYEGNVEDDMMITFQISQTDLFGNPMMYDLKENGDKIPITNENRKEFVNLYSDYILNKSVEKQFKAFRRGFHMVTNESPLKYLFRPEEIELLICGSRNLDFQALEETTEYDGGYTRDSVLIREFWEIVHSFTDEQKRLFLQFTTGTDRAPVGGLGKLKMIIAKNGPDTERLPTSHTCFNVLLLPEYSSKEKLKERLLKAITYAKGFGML
Experimental: E6AP-catalyzed ^125I-Ubiquitin Conjugation Assay: The E3 ligase activity of recombinant E6AP ligase was quantitated in kinetic assays under initial velocity conditions (Ronchi et al., (2013) J. Biol. Chem. 288, 10349-10360, Ronchi & Haas (2012) Methods Mol. Biol. 832: 197-218). Rates of E6AP-catalyzed ^125I-polyubiquitin chain formation were measured at 37° C. in incubations of 25-μl final volume containing 50 mM Tris-HCl (pH 7.5), 1 mM ATP, 10 mM MgCl2, 1 mM DTT, 10 mM creatine phosphate, 1 IU of creatine phosphokinase, 5 μM ^125I-ubiquitin (approximately 1.5×10^4 cpm/pmol), 50 nM human Uba1, and the indicated concentrations of UbcH7 and E6AP ligase (Siepmann et al., (2003) J. Biol. Chem. 278: 9448-9457; Baboshina et al., (2001) J. Biol. Chem. 276: 39428-39437). […]
Polyubiquitin chain formation was measured by excising lanes between the top of the resolving gel and the top of the stacker gel, representing anchored and free ^125I-polyubiquitin chains, respectively, and quantitating associated ^125I-ubiquitin by γ-counting. Absolute rates of ^125I-polyubiquitin chain formation were calculated from the associated radioactivity and the corrected specific radioactivity for ^125I-ubiquitin. Datum points represent single assay determinations, and complete data sets were evaluated by non-linear regression analysis using GraFit version 5.0 (Erithicus). […]

E6AP ligase [1] = target: T2, E6AP ligase (Homo sapiens, UniProt Q05086); experiment: E6AP-catalyzed 125I-polyubiquitin chain formation, initial rates; format: biochemical
T2 construct: corresponding to full-length GST-E6AP; made in house; host or cells: E. coli
T2 sequence (Q05086 1-872 isoform Q05086-3): T1 sequence (Q05086 1-872 isoform Q05086-3 Y553A) with A553Y
Experimental: E6AP-catalyzed ^125I-Ubiquitin Conjugation Assay: The E3 ligase activity of recombinant E6AP ligase was quantitated in kinetic assays under initial velocity conditions (Ronchi et al., (2013) J. Biol. Chem. 288, 10349-10360, Ronchi & Haas (2012) Methods Mol. Biol. 832: 197-218). Rates of E6AP-catalyzed ^125I-polyubiquitin chain formation were measured at 37° C. in incubations of 25-μl final volume containing 50 mM Tris-HCl (pH 7.5), 1 mM ATP, 10 mM MgCl2, 1 mM DTT, 10 mM creatine phosphate, 1 IU of creatine phosphokinase, 5 μM ^125I-ubiquitin (approximately 1.5×10^4 cpm/pmol), 50 nM human Uba1, and the indicated concentrations of UbcH7 and E6AP ligase (Siepmann et al., (2003) J. Biol. Chem. 278: 9448-9457; Baboshina et al., (2001) J. Biol. Chem. 276: 39428-39437).
Reactions were initiated by the addition of ^125I-ubiquitin. After 10-30 min, the reactions were quenched by the addition of 25 μl of 2×SDS sample buffer containing 0.3% (v/v) β-mercaptoethanol, and then the samples were heated to 100° C. for 3 min. The polyubiquitin conjugates were resolved from free ^125I-ubiquitin by 12% (w/v) SDS-PAGE under reducing conditions at 4° C. and visualized by autoradiography of the dried gels.
Polyubiquitin chain formation was measured by excising lanes between the top of the resolving gel and the top of the stacker gel, representing anchored and free ^125I-polyubiquitin chains, respectively, and quantitating associated ^125I-ubiquitin by γ-counting. Absolute rates of ^125I-polyubiquitin chain formation were calculated from the associated radioactivity and the corrected specific radioactivity for ^125I-ubiquitin. Datum points represent single assay determinations, and complete data sets were evaluated by non-linear regression analysis using GraFit version 5.0 (Erithicus). Active Uba1, E2, and E6AP ligase were independently determined in parallel by their stoichiometric formation of ^125I-ubiquitin thioester.

E6AP ligase [2] = target: E6AP ligase (Homo sapiens, UniProt Q05086); conditions: surface plasmon resonance, Zanier et al. 2005; cited from earlier work

B1: E6 protein: recombinant human papilloma virus 16 E6 protein, 158 amino acids (protein)
chain: MHQKRTAMFQDPQERPRKLPQLCTELQTTIHDIILECVYCKQQLLRREVYDFAFRDLCIVYRDGNPYAVCDKCLKFYSKISEYRHYCYSLYGTTLEQQYNKPLCDLLIRCINCQKPLCPEEKQRHLDKKQRFHNIRGRWTGRCMSCCRSSRTRRETQL
increase in rate (E6APY533A): 8 fold
effect on initial rate, wild-type protein (E6AP ligase [1]; 20 nM E6 protein, 1 nM GST-E6AP): significantly enhanced
Kactivation (E6AP ligase [1]; activation of E6AP ligase catalytic activity): 1.5 nM
Kd (E6AP ligase [1]; from double reciprocal plot, His6-E6AP, read-out: Kd for E6 binding): 1.5 nM
kcat (E6AP ligase [1]; in the presence of 20 nM E6 protein, 0.4 nM His6-E6AP): 0.81 ± 0.045 s⁻¹
stimulation in E6AP ligase activity (E6AP ligase [1]; saturating E6 protein): 14 fold
mode of action (E6AP ligase [1]; with respect to [UbcH7]o): non-essential activator
Kd (E6AP ligase [2]): 4000 nM
